From the RNAGym collection of RNA variant scans (doi:10.1073/pnas.2313332121)
Variants at the floor of the assay were thinned out.

B1: TPR 5TU (parent)
chain: GGAUCUUCUCGAUCUAACAAAAAAGACAAAUCUGCCACAAAGCUUGAGAGCAUCUUCGGAUGCAGAGGCGGCAGCCUUCGGUGGCGCGAUAGCGCCAACGUUCUCAACUAUGACACGCAAAACGCGUGCUCCGUUGAAUGGAGUUUAUCAUG

Variants of: B1
Test: polymerase ribozyme fitness, log enrichment relative to wild type (log ratio); higher = more active; in vitro selection for triplet polymerase activity
Outline: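 In triplicate, a single round of in vitro selection was run on each mutant library, PCR-built and transcribed, covering one subunit of a heterodimeric triplet polymerase ribozyme. Frozen incubation at −7 °C followed annealing with a biotinylated primer, partner subunit and triplets, and extended constructs were then gel-excised, streptavidin-captured and taken through RT-PCR. Fitness is the logarithm of genotype enrichment over wild-type enrichment, from inverse-variance-weighted replicate averages of Illumina-sequenced inputs and outputs. […] only genotypes with ≥10 input reads and ≥1 read per output were kept.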

| Variant | polymerase ribozyme fitness (log ratio) |
| --- | --- |
| GGAUCUUCUCGAUCUAACAAAAAAGACAAAUCUGCCACAAAGCUUGAGAGCAUCUUCGGAUGCAGAGGCGGCAGCCUUCGGUGGCGCGAUAGUGCCAACGUUCUCAACUAUGACACGCAAAACGCGUGCUCCGUUUAAUGGAGUUUAUCAUG [C93U G136U] | -3.31 |
| GGAUCUUCUCGAUCUAACAAAAAAGACAAAUCUGCCACAAAGCUUGAGAGCAUCUUCGGAUGCAGAGGCGGCAGCCUUCGGUGGCGCGAUAGGGCCAACGUUCUCAACUAUGUCACGCAAAACGCGUGCUCCGUUGAAUGGAGUUUAUCAUG [C93G A113U] | -4.11 |
| GGAUCUUCUCGAUCUAACAAAAAAGACAAAUCUGCCACAAAGCUUGAGAGCAUCUUCGGAUGCAGAGGCGGCAGCCUUCGGUGGCGCGAUAGUGCCAACGUUCUCAACUAUGACACGCAAAACGCAUGCUCCGUUGAACGGAGUUUAUCAUG [C93U G126A U139C] | -4.1 |
| GGAUCUUCUCGAUCUAACAAAAAAGACAAAUCUGCCACAAAGCUUGAGAGCAUCUUCGGAUGCAGAGGCGGCAGCCUUCGGUGGCGCGAUAGUGCCAACGUUCUCAACUAUGACAGGCAAAACGCGUGCUCCGUUGAAUGGAGUUUAUCAUG [C93U C116G] | -2.2 |
| GGAUCUUCUCGAUCUAACAAAAAAGACAAAUCUGCCACAAAGCUUGAGAGCAUCUUCGGAUGCAGAGGCGGCAGCCUUCGGUGGCGCGAUAGUGCCAACGUUCUCAACUAUGACACGCAAAACGUGUGCUCCGUUGAAUGGAGUUUAUCACA [C93U C125U U151C G152A] | -3.06 |
| GGAUCUUCUCGAUCUAACAAAAAAGACAAAUCUGCCACAAAGCUUGAGAGCAUCUUCGGAUGCAGAGGCGGCAGCCUUCGGUGGCGCGAUAGUGCCAACGUUCUCAACUAUGACACGCAAAACGCGUGCUCCGUUGAAUGGAGUUUAUCAUG [C93U] | -1.34 |
| GGAUCUUCUCGAUCUAACAAAAAAGACAAAUCUGCCACAAAGCUUGAGAGCAUCUUCGGAUGCAGAGGCGGCAGCCUUCGGUGGCGCGAUAGUGCCAACGUUCUCAACUAUGACACGCAAAACUCGUGCUCCGUUGAAUGGAGUUUAUCAUG [C93U G124U] | -2.66 |
| GGAUCUUCUCGAUCUAACAAAAAAGACAAAUCUGCCACAAAGCUUGAGAGCAUCUUCGGAUGCAGAGGCGGCAGCCUUCGGUGGCGCGAUAGUGCCAACGUUCUCAACUAUGACACGCAAAACACGUGCUCCGUUGAAUGGAGUUUAUCAUG [C93U G124A] | -1.3 |
| GGAUCUUCUCGAUCUAACAAAAAAGACAAAUCUGCCACAAAGCUUGAGAGCAUCUUCGGAUGCAGAGGCGGCAGCCUUCGGUGGCGCGAUAGGGCCAACGUUCUCAACUAUGACACGCAAAAUGCGUGCUCCGUUGAAUUGAGUUUAUCAUG [C93G C123U G140U] | -4.17 |
| GGAUCUUCUCGAUCUAACAAAAAAGACAAAUCUGCCACAAAGCUUGAGAGCAUCUUCGGAUGCAGAGGCGGCAGCCUUCGGUGGCGCGAUAGUGCCAACGUUCUCAACUAUGACACGCUAAACGCGGGCUCCGUUGAAUGGAGUUUAUCAUG [C93U A119U U127G] | -2.59 |
| GGAUCUUCUCGAUCUAACAAAAAAGACAAAUCUGCCACAAAGCUUGAGAGCAUCUUCGGAUGCAGAGGCGGCAGCCUUCGGUGGCGCGAUAGUGCCAACGUUCUCAACUAUGACACGCAAUACGCGCGCUCCGUUGAAUGGAGUUUAUCAUG [C93U A121U U127C] | -2.87 |
| GGAUCUUCUCGAUCUAACAAAAAAGACAAAUCUGCCACAAAGCUUGAGAGCAUCUUCGGAUGCAGAGGCGGCAGCCUUCGGUGGCGCGAUAGUGCCAACGUUCUCAACUAUGACACGCUACACGCGUGCUCCGUUGAAUGGAGUUUAUCAUG [C93U A119U A121C] | -1.6 |
| GGAUCUUCUCGAUCUAACAAAAAAGACAAAUCUGCCACAAAGCUUGAGAGCAUCUUCGGAUGCAGAGGCGGCAGCCUUCGGUGGCGCGAUAGUGCCAACGUUCUCAACUAUGACACGCAGAACGCGUGCUCCGUUGAAUGGAGUUUAUCAUG [C93U A120G] | -0.649 |
| GGAUCUUCUCGAUCUAACAAAAAAGACAAAUCUGCCACAAAGCUUGAGAGCAUCUUCGGAUGCAGAGGCGGCAGCCUUCGGUGGCGCGAUAGUGCCAACGUUCUCAACUAUGACACGCAAAGCGCGUGUUCCGUUGAAUGGAGUUGAUCAUG [C93U A122G C129U U146G] | -3.83 |
| GGAUCUUCUCGAUCUAACAAAAAAGACAAAUCUGCCACAAAGCUUGAGAGCAUCUUCGGAUGCAGAGGCGGCAGCCUUCGGUGGCGCGAUAGGGCCAACGUUCUCAACUAUGACACGCAAAACGCGUGCUCCGUUGAGUGGAGUUUAUCAUG [C93G A138G] | ≤ -4.2 |
| GGAUCUUCUCGAUCUAACAAAAAAGACAAAUCUGCCACAAAGCUUGAGAGCAUCUUCGGAUGCAGAGGCGGCAGCCUUCGGUGGCGCGAUAGUGCCAACGUUCUCAACUAUGACGCGCAAAACGCGUGCUCCGUUGAAUGGAGUUUAUCAUG [C93U A115G] | -3 |
| GGAUCUUCUCGAUCUAACAAAAAAGACAAAUCUGCCACAAAGCUUGAGAGCAUCUUCGGAUGCAGAGGCGGCAGCCUUCGGUGGCGCGAUAGUGCGAACGUUCUCAACUAUGACACGCAAAACGCGUGCUCCGUUGAAUGGAGUUUAUCAUG [C93U C96G] | -1.58 |
| GGAUCUUCUCGAUCUAACAAAAAAGACAAAUCUGCCACAAAGCUUGAGAGCAUCUUCGGAUGCAGAGGCGGCAGCCUUCGGUGGCGCGAUAGUGCUAACGUUCUCAACUAUGACACGCAAAACGCGUGCUCCGUUGAAUGGAGUUUAUCAUG [C93U C96U] | -3.28 |
| GGAUCUUCUCGAUCUAACAAAAAAGACAAAUCUGCCACAAAGCUUGAGAGCAUCUUCGGAUGCAGAGGCGGCAGCCUUCGGUGGCGCGAUAGGGCCAACGUUCUCAACUAUGACACGCAAAACGCGUGCUCCGUUGAAUGGAUUUUAUCAUG [C93G G143U] | -4.04 |

| Variant | polymerase ribozyme fitness (log ratio) |
| --- | --- |
| GGAUCUUCUCGAUCUAACAAAAAAGACAAAUCUGCCACAAAGCUUGAGAGCAUCUUCGGAUGCAGAGGCGGCAGCCUUCGGUGGCGCGAUAGGGCCAACGUUCUCAACUAUGACACGCAACACGCGUGCUCCGUUGAAUGGAGUUUAUCAUG [C93G A121C] | -3.39 |
| GGAUCUUCUCGAUCUAACAAAAAAGACAAAUCUGCCACAAAGCUUGAGAGCAUCUUCGGAUGCAGAGGCGGCAGCCUUCGGUGGCGCGAUAGGGCCAACGUUCUCAACUAUGACACGCAAAACGCGUGCUCCGUUGAAUGGAGUUGAUUAUG [C93G U146G C149U] | -3.51 |
| GGAUCUUCUCGAUCUAACAAAAAAGACAAAUCUGCCACAAAGCUUGAGAGCAUCUUCGGAUGCAGAGGCGGCAGCCUUCGGUGGCGCGAUAGUGCCAACGUUCUCAACUAUGACACGCAAAACGCAUGCUCCGUUGAAUGGAGUUUAUCAUG [C93U G126A] | -0.311 |
| GGAUCUUCUCGAUCUAACAAAAAAGACAAAUCUGCCACAAAGCUUGAGAGCAUCUUCGGAUGCAGAGGCGGCAGCCUUCGGUGGCGCGAUAGGGCCAACGUUCUCAACUAUGACACGCGAAACGCGUGCUCCGUUGAAUGGAGUUUAUCAUG [C93G A119G] | -3.48 |
| GGAUCUUCUCGAUCUAACAAAAAAGACAAAUCUGCCACAAAGCUUGAGAGCAUCUUCGGAUGCAGAGGCGGCAGCCUUCGGUGGCGCGAUAGUGCCAACGUUCUCAACUAUGACACGCAAAACACGUGCUUCGUUGAAGGGAGUUUAUCAUG [C93U G124A C131U U139G] | 0.429 |
| GGAUCUUCUCGAUCUAACAAAAAAGACAAAUCUGCCACAAAGCUUGAGAGCAUCUUCGGAUGCAGAGGCGGCAGCCUUCGGUGGCGCGAUAGUGCCAACGUUCUCAACUAUGACACGCAAAACGCGUGCUCCGUUGAAUAGAGUUUAUCAUG [C93U G140A] | -3.82 |
| GGAUCUUCUCGAUCUAACAAAAAAGACAAAUCUGCCACAAAGCUUGAGAGCAUCUUCGGAUGCAGAGGCGGCAGCCUUCGGUGGCGCGAUAGUGCCAACGUUCUCAACUAUGACACGCAAAACGCGUGCUCCGUUGAAUCGAGUUUAUCAUG [C93U G140C] | -3.57 |
| GGAUCUUCUCGAUCUAACAAAAAAGACAAAUCUGCCACAAAGCUUGAGAGCAUCUUCGGAUGCAGAGGCGGCAGCCUUCGGUGGCGCGAUAGGGCCAGCGUUCUCAACUAUGACACGCAAAACGCGUGCUCCGUUGAAUGGAGUUUAUCAUG [C93G A98G] | -2.91 |
| GGAUCUUCUCGAUCUAACAAAAAAGACAAAUCUGCCACAAAGCUUGAGAGCAUCUUCGGAUGCAGAGGCGGCAGCCUUCGGUGGCGCGAUAGGGCCAACGUUCUAAACUAUGACACGCAAAACGCGUGCUCCGUAGAAUGGAGUUUAUCAUG [C93G C105A U135A] | ≤ -4.2 |
| GGAUCUUCUCGAUCUAACAAAAAAGACAAAUCUGCCACAAAGCUUGAGAGCAUCUUCGGAUGCAGAGGCGGCAGCCUUCGGUGGCGCGAUAGGGCCAACGUUCUUAACUAUGACACGCAAAACGCGUGCUCCGUUGGAUGGAGUUUAUCAUG [C93G C105U A137G] | -4.06 |
| GGAUCUUCUCGAUCUAACAAAAAAGACAAAUCUGCCACAAAGCUUGAGAGCAUCUUCGGAUGCAGAGGCGGCAGCCUUCGGUGGCGCGAUAGGGCCAACGUUCUCAACUAUGACGCGCAAAACGCGUGCUCCGUUGAAUGGAGUUUAUCAUG [C93G A115G] | -4.09 |
| GGAUCUUCUCGAUCUAACAAAAAAGACAAAUCUGCCACAAAGCUUGAGAGCAUCUUCGGAUGCAGAGGCGGCAGCCUUCGGUGGCGCGAUAGUGCCAACGUUCUGAACUAUGACACGCAAAACGCGUGCUCCGUUGAAUGGAGUUUAUCAUG [C93U C105G] | -3.36 |
| GGAUCUUCUCGAUCUAACAAAAAAGACAAAUCUGCCACAAAGCUUGAGAGCAUCUUCGGAUGCAGAGGCGGCAGCCUUCGGUGGCGCGAUAGUGCCAACGUUCUCAACUAUGAACCGCAAAACGCGUGCUCCGUUGAAUGGAGUUUAUCAUG [C93U C114A A115C] | ≤ -4.2 |
| GGAUCUUCUCGAUCUAACAAAAAAGACAAAUCUGCCACAAAGCUUGAGAGCAUCUUCGGAUGCAGAGGCGGCAGCCUUCGGUGGCGCGAUAGGGCCAACGUUGUCAACUAUGACACGAAAAACGCGUGCUCCGUUUAAUGGAGUUCAUCAUG [C93G C103G C118A G136U U146C] | ≤ -4.2 |
| GGAUCUUCUCGAUCUAACAAAAAAGACAAAUCUGCCACAAAGCUUGAGAGCAUCUUCGGAUGCAGAGGCGGCAGCCUUCGGUGGCGCGAUAGGGCCAACGUUCUCAACUAUGACACGCAAAACGCGUGCUCCGUUGAAUAGAGUUUAUCAUG [C93G G140A] | ≤ -4.2 |
| GGAUCUUCUCGAUCUAACAAAAAAGACAAAUCUGCCACAAAGCUUGAGAGCAUCUUCGGAUGCAGAGGCGGCAGCCUUCGGUGGCGCGAUAGUGCCAACGUUCUCAACUAUGACACGCAAUACGCGUGCUCCGUUGAAUGGAGUUUAUCAUG [C93U A121U] | -0.267 |
| GGAUCUUCUCGAUCUAACAAAAAAGACAAAUCUGCCACAAAGCUUGAGAGCAUCUUCGGAUGCAGAGGCGGCAGCCUUCGGUGGCGCGAUAGUGCCAACGUUCUCAACUAUGACACGCAAAACGCGUGCUCCCAUGAAUAGAGUUUAUCAUG [C93U G133C U134A G140A] | ≤ -4.2 |
| GGAUCUUCUCGAUCUAACAAAAAAGACAAAUCUGCCACAAAGCUUGAGAGCAUCUUCGGAUGCAGAGGCGGCAGCCUUCGGUGGCGCGAUAGUGCCAACGUUUUCAACUAUGACACGCAAAACGCGUGCUCCGUUGAAUGGAGUUUAUCAUG [C93U C103U] | -1.61 |
| GGAUCUUCUCGAUCUAACAAAAAAGACAAAUCUGCCACAAAGCUUGAGAGCAUCUUCGGAUGCAGAGGCGGCAGCCUUCGGUGGCGCGAUAGUGCCAACGUUGUCAACUAUGACACGCAAAACGCGUGCUCCGUUGAAUGGAGUUUAUCAUG [C93U C103G] | -3.63 |
